{"source": "patent US20240294623A1", "about": "(SCHOLAR ROCK, published 2024)", "binders": {"B1": {"name": "Ab46 Fab (Fab, V domains shown)", "VH": "EVQLLESGGGLVQPGGSLRLSCAASGFTFADYAMTWVRQAPGKGLEWVSAISGSGAATYFADSVKGRFTISRDNSKNTLYLQMNSLRAEDTAVYYCARVSSGHWDYDYWGQGTLVTVSS", "VL": "DIQLTQSPSSLSASVGDRVTITCRASQSISSYLNWYQQKPGKAPKLLIYAASGLESGVPSRFSGSGSGTDFTLTISSLQPEDFATYYCQQTYGVPLTFGGGTKVEIK", "notes": "Fab fragment"}}, "key": {"hLTBP1-proTGFβ1 [1]": {"target": "T1, hLTBP1-proTGFβ1 (human, UniProt Q14766 347-1721; P01137 30-390, limits assumed)", "T1 construct": "Large latent complex (LLC): proTGFβ1 dimer disulfide-linked to one presenting molecule; recombinant, purified, biotinylated in BLI/SPR; The same id is used for the complex made by transfected cells in the reporter assays; also called human LTBP1-proTGFβ1 complex; LTBP1-ProTGFb1", "T1 sequence (Q14766 347-1721 limits assumed, chain 1 of 2)": "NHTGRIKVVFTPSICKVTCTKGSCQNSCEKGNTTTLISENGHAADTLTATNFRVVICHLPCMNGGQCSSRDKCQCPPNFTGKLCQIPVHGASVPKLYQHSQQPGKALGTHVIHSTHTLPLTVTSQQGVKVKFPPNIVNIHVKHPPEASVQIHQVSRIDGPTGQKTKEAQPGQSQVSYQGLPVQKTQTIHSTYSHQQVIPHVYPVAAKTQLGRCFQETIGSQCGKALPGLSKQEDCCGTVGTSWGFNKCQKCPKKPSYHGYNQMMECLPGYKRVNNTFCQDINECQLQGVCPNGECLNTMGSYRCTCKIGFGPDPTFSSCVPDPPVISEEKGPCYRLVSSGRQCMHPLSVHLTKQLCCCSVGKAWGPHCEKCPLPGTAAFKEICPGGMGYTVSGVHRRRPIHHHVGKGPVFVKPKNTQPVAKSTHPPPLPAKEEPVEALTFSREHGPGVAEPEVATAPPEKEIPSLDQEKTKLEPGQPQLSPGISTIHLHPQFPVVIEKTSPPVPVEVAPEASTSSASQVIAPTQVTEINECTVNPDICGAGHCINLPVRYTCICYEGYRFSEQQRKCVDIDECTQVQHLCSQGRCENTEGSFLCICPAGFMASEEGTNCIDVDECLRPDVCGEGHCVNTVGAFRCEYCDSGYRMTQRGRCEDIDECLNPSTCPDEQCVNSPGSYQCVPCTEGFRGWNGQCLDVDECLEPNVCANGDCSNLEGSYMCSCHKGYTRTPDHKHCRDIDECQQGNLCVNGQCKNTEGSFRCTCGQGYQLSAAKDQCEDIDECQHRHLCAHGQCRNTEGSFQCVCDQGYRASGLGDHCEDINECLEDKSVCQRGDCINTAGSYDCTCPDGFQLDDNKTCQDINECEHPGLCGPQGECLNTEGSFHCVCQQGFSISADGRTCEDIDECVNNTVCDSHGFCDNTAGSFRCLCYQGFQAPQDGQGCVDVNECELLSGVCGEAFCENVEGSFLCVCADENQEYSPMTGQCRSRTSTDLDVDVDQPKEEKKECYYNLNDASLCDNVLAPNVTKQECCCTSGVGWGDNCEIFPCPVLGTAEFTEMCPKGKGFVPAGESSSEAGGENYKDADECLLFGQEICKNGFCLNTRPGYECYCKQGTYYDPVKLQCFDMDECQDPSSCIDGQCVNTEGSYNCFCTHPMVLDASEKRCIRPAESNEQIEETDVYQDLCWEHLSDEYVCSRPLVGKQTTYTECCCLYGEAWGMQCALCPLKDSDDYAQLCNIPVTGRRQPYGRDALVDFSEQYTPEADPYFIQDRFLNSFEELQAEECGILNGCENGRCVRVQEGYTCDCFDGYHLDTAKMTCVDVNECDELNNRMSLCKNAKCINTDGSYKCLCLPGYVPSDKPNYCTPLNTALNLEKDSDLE", "T1 sequence (P01137 30-390 limits assumed, chain 2 of 2)": "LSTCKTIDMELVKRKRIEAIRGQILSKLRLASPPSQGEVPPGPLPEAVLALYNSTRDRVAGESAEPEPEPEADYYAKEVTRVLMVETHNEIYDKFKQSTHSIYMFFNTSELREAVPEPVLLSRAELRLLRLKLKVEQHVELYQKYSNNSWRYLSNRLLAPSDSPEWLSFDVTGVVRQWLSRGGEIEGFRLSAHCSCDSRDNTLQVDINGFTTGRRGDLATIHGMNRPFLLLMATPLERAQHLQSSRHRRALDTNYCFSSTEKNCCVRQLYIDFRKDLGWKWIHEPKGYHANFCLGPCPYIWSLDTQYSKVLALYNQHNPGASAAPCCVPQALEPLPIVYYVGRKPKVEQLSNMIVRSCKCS", "test": "BLI (Octet), Fab in solution, biotinylated antigen immobilised", "protocol": "(§1) The table below exemplifies binding kinetics of the listed antibodies (e.g., Fabs) obtained by OCTET®-based binding assays. The experiments were conducted with immobilized, biotinylated antigen and Fab fragments (e.g., test antibodies) in solution."}, "hGARP-proTGFβ1 [2]": {"target": "T2, hGARP-proTGFβ1 (human, UniProt Q14392 18-627; P01137 30-390, limits assumed)", "T2 construct": "LLC as m1; Same id used for the cell-surface complex in reporter assays; also called human GARP-proTGFβ1 complex; GARP-ProTGFb1", "T2 sequence (Q14392 18-627 limits assumed, chain 1 of 2)": "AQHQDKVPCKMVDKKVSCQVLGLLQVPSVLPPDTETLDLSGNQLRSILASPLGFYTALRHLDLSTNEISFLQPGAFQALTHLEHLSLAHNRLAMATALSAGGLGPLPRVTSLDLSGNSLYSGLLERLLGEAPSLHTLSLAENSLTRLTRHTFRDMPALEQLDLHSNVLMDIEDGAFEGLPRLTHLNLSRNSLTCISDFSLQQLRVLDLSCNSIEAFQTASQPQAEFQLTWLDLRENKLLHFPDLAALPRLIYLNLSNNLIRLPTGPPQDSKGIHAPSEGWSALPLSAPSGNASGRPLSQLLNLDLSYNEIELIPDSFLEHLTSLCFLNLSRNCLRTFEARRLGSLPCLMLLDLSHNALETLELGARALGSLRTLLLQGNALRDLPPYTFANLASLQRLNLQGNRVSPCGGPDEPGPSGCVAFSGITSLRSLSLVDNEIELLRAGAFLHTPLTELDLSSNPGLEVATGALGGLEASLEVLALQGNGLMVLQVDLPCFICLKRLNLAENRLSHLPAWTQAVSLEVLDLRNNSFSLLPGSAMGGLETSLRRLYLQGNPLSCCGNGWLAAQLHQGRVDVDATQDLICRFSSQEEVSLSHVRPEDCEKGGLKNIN", "T2 sequence (P01137 30-390 limits assumed, chain 2 of 2)": "as the sequence (P01137 30-390 limits assumed, chain 2 of 2) above", "test": "BLI (Octet), Fab in solution, biotinylated antigen immobilised", "protocol": "as §1"}, "hLTBP3-proTGFβ1 [3]": {"target": "T3, hLTBP3-proTGFβ1 (human, UniProt Q9NS15 44-1303; P01137 30-390, limits assumed)", "T3 construct": "LLC as m1; Same id used for the cell-made complex in reporter assays; also called human LTBP3-proTGFβ1 complex; LTBP3-ProTGFb1", "T3 sequence (Q9NS15 44-1303 limits assumed, chain 1 of 2)": "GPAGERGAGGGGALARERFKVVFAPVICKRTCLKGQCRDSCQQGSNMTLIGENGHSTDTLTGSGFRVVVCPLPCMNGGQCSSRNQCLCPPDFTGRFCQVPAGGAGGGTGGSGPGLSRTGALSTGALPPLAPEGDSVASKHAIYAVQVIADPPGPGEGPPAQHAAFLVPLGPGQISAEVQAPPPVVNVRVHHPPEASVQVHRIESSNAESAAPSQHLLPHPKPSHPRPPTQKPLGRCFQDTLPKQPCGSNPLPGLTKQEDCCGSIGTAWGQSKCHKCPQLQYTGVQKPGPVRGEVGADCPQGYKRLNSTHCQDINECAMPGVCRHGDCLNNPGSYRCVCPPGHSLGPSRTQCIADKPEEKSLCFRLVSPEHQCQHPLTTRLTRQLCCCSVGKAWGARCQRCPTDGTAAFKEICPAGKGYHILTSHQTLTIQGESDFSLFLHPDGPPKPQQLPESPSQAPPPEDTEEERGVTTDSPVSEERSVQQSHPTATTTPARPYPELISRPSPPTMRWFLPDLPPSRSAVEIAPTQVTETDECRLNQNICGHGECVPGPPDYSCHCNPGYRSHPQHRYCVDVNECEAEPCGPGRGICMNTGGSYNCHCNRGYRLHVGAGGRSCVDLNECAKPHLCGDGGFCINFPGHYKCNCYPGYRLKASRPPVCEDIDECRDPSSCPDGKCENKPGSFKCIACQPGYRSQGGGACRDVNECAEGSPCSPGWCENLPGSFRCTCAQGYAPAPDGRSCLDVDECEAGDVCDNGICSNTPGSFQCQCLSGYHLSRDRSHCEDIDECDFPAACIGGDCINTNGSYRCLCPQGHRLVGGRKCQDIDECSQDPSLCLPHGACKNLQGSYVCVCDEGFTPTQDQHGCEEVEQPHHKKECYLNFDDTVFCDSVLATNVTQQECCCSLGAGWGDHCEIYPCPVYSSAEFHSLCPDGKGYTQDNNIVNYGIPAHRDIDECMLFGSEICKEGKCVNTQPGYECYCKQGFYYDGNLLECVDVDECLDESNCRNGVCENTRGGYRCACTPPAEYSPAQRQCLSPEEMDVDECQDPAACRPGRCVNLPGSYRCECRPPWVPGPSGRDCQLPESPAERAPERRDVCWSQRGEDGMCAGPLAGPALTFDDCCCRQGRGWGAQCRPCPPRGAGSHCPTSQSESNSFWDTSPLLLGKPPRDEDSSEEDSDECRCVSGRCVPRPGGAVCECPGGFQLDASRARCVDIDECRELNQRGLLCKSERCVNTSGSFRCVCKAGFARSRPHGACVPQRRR", "T3 sequence (P01137 30-390 limits assumed, chain 2 of 2)": "as the sequence (P01137 30-390 limits assumed, chain 2 of 2) above", "test": "BLI (Octet), Fab in solution, biotinylated antigen immobilised", "protocol": "as §1"}, "mLRRC33-proTGFβ1": {"target": "mLRRC33-proTGFβ1 (murine, UniProt Q8BMT4 20-651)", "sequence (Q8BMT4 20-651)": "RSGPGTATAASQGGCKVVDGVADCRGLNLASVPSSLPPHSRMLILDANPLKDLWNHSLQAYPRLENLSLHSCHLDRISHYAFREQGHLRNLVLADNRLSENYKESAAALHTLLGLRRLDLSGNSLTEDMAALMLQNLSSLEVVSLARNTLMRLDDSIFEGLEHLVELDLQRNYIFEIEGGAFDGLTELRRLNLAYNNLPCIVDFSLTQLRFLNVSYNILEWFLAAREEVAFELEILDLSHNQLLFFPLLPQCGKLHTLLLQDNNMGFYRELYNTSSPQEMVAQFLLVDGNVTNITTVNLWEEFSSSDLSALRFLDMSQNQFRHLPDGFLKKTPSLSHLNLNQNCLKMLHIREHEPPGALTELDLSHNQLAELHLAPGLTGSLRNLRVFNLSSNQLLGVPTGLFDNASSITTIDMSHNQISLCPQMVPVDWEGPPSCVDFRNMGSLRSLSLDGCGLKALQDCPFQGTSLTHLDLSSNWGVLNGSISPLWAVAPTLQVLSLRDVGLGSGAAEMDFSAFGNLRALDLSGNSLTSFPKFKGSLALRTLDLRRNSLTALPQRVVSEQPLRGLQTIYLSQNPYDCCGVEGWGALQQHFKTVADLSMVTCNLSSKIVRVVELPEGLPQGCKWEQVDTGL", "test": "SPR (Biacore), Fab"}, "[4]": {"target": "endogenous LTBP-proTGFβ1 of human LN229 cells (human, UniProt P01137 30-390)", "sequence (P01137 30-390)": "as the sequence (P01137 30-390 limits assumed, chain 2 of 2) above", "test": "cell-based or functional assay"}, "hLTBP1-proTGFβ1 [5]": {"target": "T1, hLTBP1-proTGFβ1", "test": "SPR (Biacore), Fab; affinity relative to Ref", "protocol": "(§2) Surface plasmon resonance (SPR) was used to measure binding kinetics using a BIACORE® system. […] Experiments were carried out with eight types of LLCs, namely, hLTBP1-proTGFβ1, mLTBP1-proTGFβ1, hLTBP3-proTGFβ1, mLTBP3-proTGFβ1, hGARP-proTGFβ1, mGARP-proTGFβ1, hLRRC33-proTGFβ1 and mLRRC33-proTGFβ1.\n(§3) In vitro binding kinetics (on/off rates) were measured in Biacore-based assays and affinities were determined against all four known LLCs using both human and murine counterparts for each. Based on the association rate and dissociation rate, KD was calculated for each. In addition, relative affinities, as compared to the reference antibody as a benchmark, were calculated and expressed as “fold difference” relative to the reference antibody.\n(§4) A BIACORE® system was employed to determine the monovalent binding affinity and the kinetic parameters for antigen binding of test antibodies. The binding kinetics were evaluated by surface plasmon resonance using Biacore 8K (GE Healthcare). A Biotin CAP sensor chip was used to capture the biotinylated antigens. […] Multi-cycle kinetics was employed where each analyte concentration was injected in a separate cycle and the sensor chip surface was regenerated after each cycle. All the assays were carried out in freshly prepared 1×HBS-EP+buffer (10 mM HEPES, 150 mM NaCl, 3 mM EDTA, 0.05% Tween20, pH 7.4). Data for all the analyte concentrations for each interaction were fit globally to a 1:1 binding model to obtain the kinetic parameters. The Sensorgram for 0 nM analyte concentration was used as reference."}, "mLTBP1-proTGFβ1": {"target": "T4, mLTBP1-proTGFβ1 (mouse)", "T4 construct": "Murine LLC; also called murine LTBP1-proTGFβ1 complex", "test": "SPR (Biacore), Fab; affinity relative to Ref", "protocol": "as §2, §3, §4"}, "hGARP-proTGFβ1 [6]": {"target": "T2, hGARP-proTGFβ1", "test": "SPR (Biacore), Fab; affinity relative to Ref", "protocol": "as §2, §3, §4"}, "hLTBP3-proTGFβ1 [7]": {"target": "T3, hLTBP3-proTGFβ1", "test": "SPR (Biacore), Fab; affinity relative to Ref", "protocol": "as §2, §3, §4"}, "mLTBP3-proTGFβ1": {"target": "T5, mLTBP3-proTGFβ1 (mouse)", "T5 construct": "Murine LLC; also called murine LTBP3-proTGFβ1 complex", "test": "SPR (Biacore), Fab; affinity relative to Ref", "protocol": "as §2, §3, §4"}}}
{"binder": "B1", "values": [{"measurement": "koff", "setting": "hLTBP1-proTGFβ1 [1]", "value": "4.98e-05", "unit": "s⁻¹"}, {"measurement": "kon", "setting": "hLTBP1-proTGFβ1 [1]", "value": 703000, "unit": "M⁻¹ s⁻¹"}, {"measurement": "koff", "setting": "hGARP-proTGFβ1 [2]", "value": 0.00029, "unit": "s⁻¹"}, {"measurement": "kon", "setting": "hGARP-proTGFβ1 [2]", "value": 703000, "unit": "M⁻¹ s⁻¹"}, {"measurement": "koff", "setting": "hLTBP3-proTGFβ1 [3]", "value": 0.000438, "unit": "s⁻¹"}, {"measurement": "kon", "setting": "hLTBP3-proTGFβ1 [3]", "value": 619000, "unit": "M⁻¹ s⁻¹"}, {"measurement": "Kd", "setting": "mLRRC33-proTGFβ1", "value": 0.0892, "unit": "nM"}, {"measurement": "koff", "setting": "mLRRC33-proTGFβ1", "value": 0.000112, "unit": "s⁻¹"}, {"measurement": "kon", "setting": "mLRRC33-proTGFβ1", "value": "1.26e+06", "unit": "M⁻¹ s⁻¹"}, {"measurement": "fAb IC50", "setting": "[4]", "value": 0.723, "unit": "nM"}, {"measurement": "Fold difference", "setting": "hLTBP1-proTGFβ1 [5]", "value": 134, "unit": "fold"}, {"measurement": "Fold difference", "setting": "mLTBP1-proTGFβ1", "value": 123, "unit": "fold"}, {"measurement": "Fold difference", "setting": "hGARP-proTGFβ1 [6]", "value": 53, "unit": "fold"}, {"measurement": "Fold difference", "setting": "hLTBP3-proTGFβ1 [7]", "value": 72, "unit": "fold"}, {"measurement": "Fold difference", "setting": "mLTBP3-proTGFβ1", "value": 91, "unit": "fold"}]}
